Reference: publication PMC3292583, “Poplar GTL1 Is a Ca2+/Calmodulin-Binding Transcription Factor that Functions in Plant Water Use Efficiency and Drought Tolerance”

Tests used:
[1] = biological target: T1, PtaGTL1-C (C-terminal trihelix DNA-binding fragment) (Populus tremula x P. alba (clone …, UniProt G8G9Q9 528-779)); experiment: EMSA; text: mutation inhibited the interaction; LightShift Chemiluminescent EMSA kit, per cited earlier method; 200 ng biotin probe, 1000 ng competitor; binding buffer, salt, pH and temperature not stated (probes annealed in 10 mM Tris-HCl, 1 mM EDTA, pH 8.0); details: protein: recombinant; tags: N-terminal 6xHis (pDEST17); label: 3' biotin (probe); blunt
T1 sequence: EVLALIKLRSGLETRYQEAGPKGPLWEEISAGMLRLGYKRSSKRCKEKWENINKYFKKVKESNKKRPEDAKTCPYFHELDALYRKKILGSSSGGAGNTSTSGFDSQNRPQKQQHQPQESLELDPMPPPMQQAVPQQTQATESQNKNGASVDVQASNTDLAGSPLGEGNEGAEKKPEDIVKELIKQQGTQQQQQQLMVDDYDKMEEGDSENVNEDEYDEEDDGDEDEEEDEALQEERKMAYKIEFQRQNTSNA

[2] = biological target: T1, PtaGTL1-C (C-terminal trihelix …); experiment: EMSA; LightShift Chemiluminescent EMSA kit, per cited earlier method; 200 ng biotin probe, 1000 ng competitor; binding buffer, salt, pH and temperature not stated (probes annealed in 10 mM Tris-HCl, 1 mM EDTA, pH 8.0); details: protein: recombinant; tags: N-terminal 6xHis (pDEST17); label: 3' biotin (probe); blunt

B1: PtSDD1m (GT2 box GGTAAT to CCTAAT) (dsDNA)
DNA 1: TTCGTGAATATCCTAATGATTAT
DNA 2: ATAATCATTAGGATATTCACGAA
- binding result [1]: no binding

B2: AtSDD1m (GT3 box GGTAAA to CCTAAA) (dsDNA)
DNA 1: TTCTTTGGCTTCCTAAAACTTCAATGGA
DNA 2: TCCATTGAAGTTTTAGGAAGCCAAAGAA
- binding result [2]: no binding

B3: AtSDD1 promoter fragment with GT3 box (dsDNA)
DNA 1: TTCTTTGGCTTGGTAAAACTTCAATGGA
DNA 2: TCCATTGAAGTTTTACCAAGCCAAAGAA
- binding result [2]: binds
